Experimental data: article doi:10.1101/2024.07.11.602925

Target: His-tagged PTB domain of RABGAP1
Experiment: ITC

WT APP tail peptide, starting from the MQQ sequence at position 677 (from UniProt P05067-4 677-695)
Kd: 61 µM
stoichiometry N: 1
